Assays:
[1] = target: T1, 人MSLN.His抗原 (MSLN.His蛋白, 义翘神州科技股份有限公司, MSN-H5223) (human, UniProt Q13421 296-580, limits assumed); experiment: SPR (Biacore), antibody captured on protein A chip, MSLN.His as analyte at 5 concentrations
T1 construct: Bought protein; not shown: His tag

[2] = target: MSLN expressed on HEK293T cells (HEK293T MSLN细胞) (UniProt Q13421); experiment: flow cytometry on HEK293T cells expressing MSLN, anti-human IgG PE detection

T1 sequence (Q13421 other isoform, or with tags, fused parts or gaps limits assumed): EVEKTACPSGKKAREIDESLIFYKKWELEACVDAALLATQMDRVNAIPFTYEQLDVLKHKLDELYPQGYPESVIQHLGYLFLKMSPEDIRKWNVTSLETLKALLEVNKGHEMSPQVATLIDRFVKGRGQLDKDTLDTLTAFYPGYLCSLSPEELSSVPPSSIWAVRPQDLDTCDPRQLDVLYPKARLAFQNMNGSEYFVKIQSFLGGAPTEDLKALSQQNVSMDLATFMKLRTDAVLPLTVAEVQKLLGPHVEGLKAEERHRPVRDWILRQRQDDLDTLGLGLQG

- Kd [1]: 0.264 nM
- koff [1]: 1.82e-05 s⁻¹
- kon [1]: 69000 M⁻¹ s⁻¹
- EC50 [2]: 3.68 nM
B1: M2339 (重链抗体, 纳米抗体构建到pCDNA3.4-IgG4载体上表达) (Fc fusion)
heavy: QLQLGASGGGLVQPGGSLRLSCALSGFTLRELDEFAIGWFRQAPGKEREGVSCISGTGGITHYADSVKGRFTISRDIAKTTVYLQMNSLNSEDTAVYYCAADERCTDRLIRPPTYWGQGTQVTVSS
notes: also called 候选抗体; not shown: IgG4 constant part from the vector pCDNA3.4-IgG4

Source: patent CN114685666A (ZHEJIANG NANOMETER ANTIBODY TECH CENTER LIMITED COMPANY, dated 2022)
